From PMC10284700

Target: wild-type full-length human FGFR1c, P11362
Assay: proximity ligation assay (PLA) on L6 cells
Conditions: chain shown with the change; L6-FGFR1cWT cells cotreated with FGF23ΔHBS and soluble αKlotho; n = 6 microscope fields, mean ± SD; parent: est. 2.3; read off a plot

wild-type full-length human FGFR1c, P11362, sequence (P11362 22-822): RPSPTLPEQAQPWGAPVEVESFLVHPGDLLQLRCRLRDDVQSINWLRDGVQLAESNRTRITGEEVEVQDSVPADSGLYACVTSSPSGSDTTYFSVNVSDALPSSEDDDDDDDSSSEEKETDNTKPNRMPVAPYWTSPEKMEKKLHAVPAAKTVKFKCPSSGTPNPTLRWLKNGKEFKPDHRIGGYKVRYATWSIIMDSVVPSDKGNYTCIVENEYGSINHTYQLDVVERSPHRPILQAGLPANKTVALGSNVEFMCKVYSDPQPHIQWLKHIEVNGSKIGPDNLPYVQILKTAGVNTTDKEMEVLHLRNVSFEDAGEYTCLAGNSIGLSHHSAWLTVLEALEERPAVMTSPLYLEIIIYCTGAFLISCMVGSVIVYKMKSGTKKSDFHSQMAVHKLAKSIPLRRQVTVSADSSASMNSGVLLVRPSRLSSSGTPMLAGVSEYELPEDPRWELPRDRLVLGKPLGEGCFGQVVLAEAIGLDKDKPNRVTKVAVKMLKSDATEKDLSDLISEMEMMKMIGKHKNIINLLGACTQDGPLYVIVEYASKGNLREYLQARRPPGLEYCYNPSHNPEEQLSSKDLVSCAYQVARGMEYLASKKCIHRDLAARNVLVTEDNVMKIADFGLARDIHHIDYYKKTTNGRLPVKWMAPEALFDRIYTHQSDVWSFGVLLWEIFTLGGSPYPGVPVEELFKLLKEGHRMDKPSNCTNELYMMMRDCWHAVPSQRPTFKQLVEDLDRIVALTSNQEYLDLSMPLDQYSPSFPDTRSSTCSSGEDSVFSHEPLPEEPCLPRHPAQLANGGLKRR

B1: full-length mature human FGF23 (residues Tyr25 to Ile251), Q9GZV9 R48A; R140A (protein)
chain: MLGARLRLWVCALCSVCSMSVLRAYPNASPLLGSSWGGLIHLYTATAANSYHLQIHKNGHVDGAPHQTIYSALMIRSEDAGFVVITGVMSRRYLCMDFRGNIFGSHYFDPENCRFQHQTLENGYDVYHSPQYHFLVSLGAAKRAFLPGMNPPPYSQFLSRRNEIPLIHFNTPIPRRHTRSAEDDSERDPLNVLKPRARMTPAPASCSQELPSAEDNSPMASDPLGVVRGGRVNTHAGGTGPEGCRPFAKFI
- response (positive point/cell number): 1.2
